Here are results for one substance from patent publication US6075125.

This assay concerns the target BFIV21FLAG: BFIV21 with the FLAG epitope on the amino terminal end, expressed on RP9 cells (chicken). Nature of the assay: indirect immunofluorescence, flow cytometry on RP9-BFIV21FLAG cells (RP9-BFIV21: 21; RP9: 20).

“FLAG-specific monoclonal antibody M2 (Kodak-IBI) (tool reagent)”: the log fluorescent mean channel number (mean log fluorescent channel number) is 191.
